From article PMC3204382

Legend:
FadR_ec = FadR_ec (Escherichia coli, UniProt P0A8V6 1-239); assay: EMSA
FadR_vc = FadR_vc (Vibrio cholerae, UniProt Q9KQU8 1-279); assay: EMSA
Chain of FadR_vc (Q9KQU8 whole entry): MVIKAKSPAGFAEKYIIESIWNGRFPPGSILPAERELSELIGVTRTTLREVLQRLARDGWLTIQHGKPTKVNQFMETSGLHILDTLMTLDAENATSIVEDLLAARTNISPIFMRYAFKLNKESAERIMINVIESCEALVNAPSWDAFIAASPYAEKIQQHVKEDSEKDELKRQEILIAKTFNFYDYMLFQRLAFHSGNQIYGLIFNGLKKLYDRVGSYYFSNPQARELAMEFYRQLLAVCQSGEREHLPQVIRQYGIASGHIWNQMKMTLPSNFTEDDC

Chain of FadR_ec (P0A8V6 whole entry): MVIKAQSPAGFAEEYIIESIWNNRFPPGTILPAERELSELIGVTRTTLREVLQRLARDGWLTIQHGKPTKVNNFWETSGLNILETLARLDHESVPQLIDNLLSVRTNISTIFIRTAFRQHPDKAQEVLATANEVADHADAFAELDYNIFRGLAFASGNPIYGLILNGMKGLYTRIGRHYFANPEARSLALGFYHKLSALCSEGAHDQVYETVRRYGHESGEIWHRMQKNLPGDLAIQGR

B1: plsB_vc FadR site probe (39 bp) (dsDNA)
DNA 1: TTAAATTAAAAGGTTTGACCAGTTTCTGGTATTCTTGGC
DNA 2: GCCAAGAATACCAGAAACTGGTCAAACCTTTTAATTTAA
B1: binds (FadR_ec); binds (FadR_vc).
